Earlier results, collected in PMC6417862.

Molecular target: muscle actin (Oryctolagus cuniculus) (UniProt P68135)

Kd: < 300 nM
Substance: cofilin (from UniProt Q03048)
